Assay results taken from the supplement of paper PMC10201428.
± gives the standard deviation of the averaged measurements.

B1: library; a variant is named by its letters at N, in order (parent)
chain: AATGTTGTTGATGCAACCATAAAGTGATATTTAATAATTATTTATAATCAGCAACTTAACCACAAAACAACCATATATTGATATNTCACAAAACAACCATAANTTGATATTTTTGTGAATCGAGTATTTCAGCAAAACTACTGCAGTAAGAA

Experiments:
[1] = variants of: B1; test: relative integration efficiency (T-LR orientation) vs wild-type transposon end (log2 (normalized fold change)); transposon end mutated: left end; higher = more efficient transposition; settings: with VchCAST RNA-guided transposition machinery (E. coli BL21(DE3) host, lacZ target)
Procedure, shortened: (§1)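 Pools of 1549 left-end or 1849 right-end barcoded transposon variants were cloned into a pUC57 mini-transposon donor and co-transformed into E. coli BL21(DE3) with a T7-driven effector plasmid carrying a CRISPR array, tniQ-cas8-cas7-cas6 and tnsA-tnsB-tnsC. Plating used 0.1 mM IPTG at 37°C for 18 h, and input plasmids and genomic integration junctions were PCR-amplified for Illumina sequencing, with two biological output replicates and four reference barcodes. Relative integration efficiency is the log-transformed fold change of output over input barcode abundance, normalised to the reference barcodes.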

[2] = variants of: B1; test: relative integration efficiency (T-RL orientation) vs wild-type transposon end (log2 (normalized fold change)); transposon end mutated: left end; higher = more efficient transposition; settings: with VchCAST RNA-guided transposition machinery (E. coli BL21(DE3) host, lacZ target)
Procedure, shortened: as §1

Variant: AATGTTGCTGATGCAACCATAAAGTGATATTTAATAATTATTTATAATCAGCAACTTAACCACAAAACAACCATATATTGATATCTCACAAAACAACCATAAGTTGATATTTTTGTGAATCGAGTATTTCAGCAAAACTACTGCAGTAAGAA
- relative integration efficiency (log2) [1]: -0.996 ± 0.69
- relative integration efficiency (log2) [2]: -1.39 ± 0.56

Variant: AATGTTGATGATGCAACCATAAAGTGATATTTAATAATTATTTATAATCAGCAACTTAACCACAAAACAACCATATATTGATATCTCACAAAACAACCATAAGTTGATATTTTTGTGAATCGAGTATTTCAGCAAAACTACTGCAGTAAGAA
- relative integration efficiency (log2) [1]: -0.491 ± 0.035
- relative integration efficiency (log2) [2]: -0.209 ± 0.19

Variant: AATGTTGGTGATGCAACCATAAAGTGATATTTAATAATTATTTATAATCAGCAACTTAACCACAAAACAACCATATATTGATATCTCACAAAACAACCATAAGTTGATATTTTTGTGAATCGAGTATTTCAGCAAAACTACTGCAGTAAGAA
- relative integration efficiency (log2) [1]: < -10
- relative integration efficiency (log2) [2]: -6.68 ± 0.98

Variant: AATGTTGAACTTGCAACCATAAAGTGATATTTAATAATTATTTATAATCAGCAACTTAACCACAAAACAACCATATATTGATATCTCACAAAACAACCATAAGTTGATATTTTTGTGAATCGAGTATTTCAGCAAAACTACTGCAGTAAGAA
- relative integration efficiency (log2) [1]: < -10
- relative integration efficiency (log2) [2]: -6.573 ± 0.021

Variant: AATGTTGTGGATGCAACCATAAAGTGATATTTAATAATTATTTATAATCAGCAACTTAACCACAAAACAACCATATATTGATATCTCACAAAACAACCATAAGTTGATATTTTTGTGAATCGAGTATTTCAGCAAAACTACTGCAGTAAGAA
- relative integration efficiency (log2) [1]: 0.416 ± 0.19
- relative integration efficiency (log2) [2]: 0.28 ± 0.09

Variant: AATGTTGTAGATGCAACCATAAAGTGATATTTAATAATTATTTATAATCAGCAACTTAACCACAAAACAACCATATATTGATATCTCACAAAACAACCATAAGTTGATATTTTTGTGAATCGAGTATTTCAGCAAAACTACTGCAGTAAGAA
- relative integration efficiency (log2) [1]: -0.191 ± 0.61
- relative integration efficiency (log2) [2]: -0.00405 ± 0.092

Variant: AATGTTGTCGATGCAACCATAAAGTGATATTTAATAATTATTTATAATCAGCAACTTAACCACAAAACAACCATATATTGATATCTCACAAAACAACCATAAGTTGATATTTTTGTGAATCGAGTATTTCAGCAAAACTACTGCAGTAAGAA
- relative integration efficiency (log2) [1]: 0.146 ± 0.38
- relative integration efficiency (log2) [2]: 0.242 ± 0.0041

Variant: AATGTTGTTGAAACAACCATAAAGTGATATTTAATAATTATTTATAATCAGCAACTTAACCACAAAACAACCATATCTTGATATCGCACAAAACAACCATAAGTTGATATTTTTGTGAATCGAGTATTTCAGCAAAACTACTGCAGTAAGAA
- relative integration efficiency (log2) [1]: -0.125 ± 0.28
- relative integration efficiency (log2) [2]: -0.319 ± 0.14

Variant: AATGTTGTTGAAACAACCATAAAGTGATAATTAATAATTATTTATAATCAGCAACTTAACCACAAAACAACCATATCTTGATATCGCACAAAACAACCATAAGTTGATATTTTTGTGAATCGAGTATTTCAGCAAAACTACTGCAGTAAGAA
- relative integration efficiency (log2) [1]: -0.394 ± 0.45
- relative integration efficiency (log2) [2]: -0.113 ± 0.12

Variant: AATGTGTGGGATGCAACCATAAAGTGATATTTAATAATTATTTATAATCAGCAACTTAACCACAAAACAACCATATATTGATATCTCACAAAACAACCATAAGTTGATATTTTTGTGAATCGAGTATTTCAGCAAAACTACTGCAGTAAGAA
- relative integration efficiency (log2) [1]: < -10
- relative integration efficiency (log2) [2]: -7.37 ± 0.95

Variant: AATGTAGTTGATGCAACCATAAAGTGATATTTAATAATTATTTATAATCAGCAACTTAACCACAAAACAACCATATATTGATATCTCACAAAACAACCATAAGTTGATATTTTTGTGAATCGAGTATTTCAGCAAAACTACTGCAGTAAGAA
- relative integration efficiency (log2) [1]: < -10
- relative integration efficiency (log2) [2]: -6.68 ± 0.076

Variant: AATGTCGTTGATGCAACCATAAAGTGATATTTAATAATTATTTATAATCAGCAACTTAACCACAAAACAACCATATATTGATATCTCACAAAACAACCATAAGTTGATATTTTTGTGAATCGAGTATTTCAGCAAAACTACTGCAGTAAGAA
- relative integration efficiency (log2) [1]: -1.5 ± 1
- relative integration efficiency (log2) [2]: -2.65 ± 0.37

Variant: AATGTTGTACTAGCAACCATAAAGTGATATTTAATAATTATTTATAATCAGCAACTTAACCACAAAACAACCATATATTGATATCTCACAAAACAACCATAAGTTGATATTTTTGTGAATCGAGTATTTCAGCAAAACTACTGCAGTAAGAA
- relative integration efficiency (log2) [1]: -4.24 ± 1.9
- relative integration efficiency (log2) [2]: -1.59 ± 0.56

Variant: AATGTTGTTGAAACAACCATAAAGTGATATTTAATAATTATTTATAATCAGCAACTTAACCACAAAACAACCATATATTGATATCTCACAAAACAACCATAAGTTGATATTTTTGTGAATCGAGTATTTCAGCAAAACTACTGCAGTAAGAA
- relative integration efficiency (log2) [1]: -0.256 ± 0.34
- relative integration efficiency (log2) [2]: -0.294 ± 0.04

Variant: AATGTTGTTGAAGCAACCATAAAGTGATATTTAATAATTATTTATAATCAGCAACTTAACCACAAAACAACCATATATTGATATCTCACAAAACAACCATAAGTTGATATTTTTGTGAATCGAGTATTTCAGCAAAACTACTGCAGTAAGAA
- relative integration efficiency (log2) [1]: 0.00533 ± 0.2
- relative integration efficiency (log2) [2]: -0.099 ± 0.056

Variant: AATGTTGTACATGCAACCATAAAGTGATATTTAATAATTATTTATAATCAGCAACTTAACCACAAAACAACCATATATTGATATCTCACAAAACAACCATAAGTTGATATTTTTGTGAATCGAGTATTTCAGCAAAACTACTGCAGTAAGAA
- relative integration efficiency (log2) [1]: -2.248 ± 0.0027
- relative integration efficiency (log2) [2]: -0.479 ± 0.16

Variant: AATGTTGAAGATGCAACCATAAAGTGATATTTAATAATTATTTATAATCAGCAACTTAACCACAAAACAACCATATATTGATATCTCACAAAACAACCATAAGTTGATATTTTTGTGAATCGAGTATTTCAGCAAAACTACTGCAGTAAGAA
- relative integration efficiency (log2) [1]: -0.985 ± 0.14
- relative integration efficiency (log2) [2]: -0.297 ± 0.11

Variant: AATGTTGTGTCGGCAACCATAAAGTGATATTTAATAATTATTTATAATCAGCAACTTAACCACAAAACAACCATATATTGATATCTCACAAAACAACCATAAGTTGATATTTTTGTGAATCGAGTATTTCAGCAAAACTACTGCAGTAAGAA
- relative integration efficiency (log2) [1]: -1.29 ± 0.52
- relative integration efficiency (log2) [2]: -0.645 ± 0.35

Variant: AATGTTGTGTATGCAACCATAAAGTGATATTTAATAATTATTTATAATCAGCAACTTAACCACAAAACAACCATATATTGATATCTCACAAAACAACCATAAGTTGATATTTTTGTGAATCGAGTATTTCAGCAAAACTACTGCAGTAAGAA
- relative integration efficiency (log2) [1]: -0.0361 ± 0.31
- relative integration efficiency (log2) [2]: 0.0751 ± 0.11
